Assay: yeast display, Sf9 membrane polyspecificity reagent, FACS + sequencing; frameworks hold sequencing errors
How it was run: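 Sorting gates, low and high (top ~1%), were placed on anti-HA fluorescence to track expression and on streptavidin fluorescence to track reagent binding. A clone's polyreactivity label is taken from the gate it came out of. The reagent was 10% biotinylated, detergent-solubilized Sf9 membrane, applied for 1 hour at 4 °C to galactose-induced yeast display cells.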

Sequence: QVQLVESGGGLVQAGGSLRLSCAASGSILALYTMGWYRQAPGKEREFVATITSSDGSTYYADSVKGRFTISRDNAKNTVYLQMNSLKPEDTAVYYCNARGSVYYLKFDYWGQGTQVTVSS
- polyreactivity (PSR sort gate): low polyreactivity

Sequence: QVQLVESGGGLVQAGGSLRLSCAASGIIFERYAMGWYRQAPGKERELVATISWSGGSTRYADSVKGRFTISRDNAKNTVYLQMNSLKPEDTAVYYCAAPSYFRMGYWGQGTQVTVSS
- polyreactivity (PSR sort gate): low polyreactivity

Sequence: QVQLVESGGGLVQAGGSLRLSCAASGFTFYRYAMGWYRQAPGKERELVAAITSAGSTYYADSVKGRFTISRDNAKNTVYLQMNSLKPEDTAVSYCNAVGYFSYRDRDSEYYYNYGSWGQGTQVTVSS
- polyreactivity (PSR sort gate): low polyreactivity

Sequence: QVQLVESGGGLVQAGGSLLLSCAASGSIFVRNTMGWYRQAPGKERELVAAITSSGGTTYYADSVKGRFTISRDNAKNTVYLQMNSLKPEDTAVYYCAARYGYWGQGTQVTVSS
- polyreactivity (PSR sort gate): high polyreactivity

Sequence: QVQLVESGGGLVQAGGSLRLSCAASGSTFSNNAMGWYRQAPGKERELVASTNYADSVKGRFTISRDNEKNTVYLQMNSLKPEDTAVYYCAAGAYPSWGLDFWGQGTQVTVSS
- polyreactivity (PSR sort gate): low polyreactivity

Sequence: QVQLVESGGGLVQAGGSLRLSCAASGFTFVYYAMGWYRQAPGKERELVATITRSGDSTYYADSVKGRFTISRDNAKNTVYLQMNSLKPEDTAVYYCAAQPGTASYAGDGDSWGQGTQVTVSS
- polyreactivity (PSR sort gate): low polyreactivity

Sequence: QVHLVESGGGLVQAGGSLRLSCAASGSTFGLKAMGWYRQAPGKEREFVASINFNDGSTYYADSVKGRFTISRDNAKNTVYLQMNSLKPEDPAVYYCAVELWWKWPFYYWGQGTQVTVSS
- polyreactivity (PSR sort gate): high polyreactivity

Sequence: QVHLVESAGGLVQAGGSLRLSCDASGFIFPRYDMGSYRQAPGKEREMVAAISRRGGSTNYADSVKGRFTISRDNAKNTVYLQMNSLKPEATAVYYCNADTTGYSSYGYDYWGQGSQVTVSS
- polyreactivity (PSR sort gate): high polyreactivity

Sequence: QVQLVESGGGLVQAGGSLRLSCAASGNTFGDNAMGWYRQAPGKERELVAAISTGGNTYYADSVKGRFTISRDNAKNTVYLQMNSLKPEDTAVYYCNAKWIPDTLFGIHETEGDYWGQGTQVTVSS
- polyreactivity (PSR sort gate): low polyreactivity

Sequence: QVHLVESGGGLVQAGGSLRLSCAASGITIYVYAMGWYRQAPGKEREFVAAINGRGGSPYYADSVKGRFTISRDNAKNTVYLQMNSLKPEDTAVFYCAAESLAIYYKYPPYDYWGQGSQVTVSS
- polyreactivity (PSR sort gate): high polyreactivity

Sequence: QVQLVESGAGLVQAGGSLRLSCAASGIIFDWYTMGWYRQAPGKERELVAAISWRGGRTYYADSVKGRFTISRDNAKNTVYLQMNSLKPEDTAVYYCAAEAPVQPFYVFNTGIYELDYWGQGTQVTVSS
- polyreactivity (PSR sort gate): low polyreactivity

Sequence: QFQLVESGGGLVQAGGSLRLSCAASGSIFSVYAMGWYRQAPGKERELVAAITNRGGSTYYADSVKGRFTISRDNAKNTVYLQMNSLKPEDTAVYYCARGPVSYGGLYDYWGQGTQVIVSS
- polyreactivity (PSR sort gate): low polyreactivity

Sequence: QVQHVESGGGLVQAGGSLRLICAASGFSFILYAMGWYRQARGKERELVAAISSSGGRRYYADSVKGRFTISRDNANNTVYIQMNSLKPEDTAVYYCNAVRTVNDYHYDYWGQGTQVTVSS
- polyreactivity (PSR sort gate): high polyreactivity

Sequence: QVQLVESGGGIVQAGGSLRLSCAASGNTFYTYAMGWYRQAPGKERELVAAITSGGRTYADSVKGRFTISRDNATNTVYLQMNSLKPEDTAVYYCAADFPGFYYVYPGDYWGQGTQVTVSS
- polyreactivity (PSR sort gate): low polyreactivity

Sequence: QFQLVESGGGLVQAGGSLRLSCAASGSIIGPYAMGWYRQAPVKERELVAVISSGDSKNYADSVKGRFTISRDNAKNTVYLQMNSLKQEDNEVSYCRCKYDVAHHFWVYRYDYWGHGTQVTVSS
- polyreactivity (PSR sort gate): low polyreactivity

Sequence: QVQLVESGGGLVQAGGSLRLSCAASGITFPYYAKGWYRQAPGKERELVAGISRSGGRTYYADSVKGRFTISRDNAKNTVYLQMNSLKPEDTAVYYCNARKNLLSVTFDYWGQGTQVTVSS
- polyreactivity (PSR sort gate): high polyreactivity

Sequence: QVQLVESGGGLVQAGGSLRLSCAASGFIFIEYTMGWYRQAPGKERQLVAAISSGGNTYYADSVKGRFTISRDNAKNTVYLQMNSLKPEDTAVYYCNADNYAFYTQRPLDGSATYDYWGQGTQVTVSS
- polyreactivity (PSR sort gate): low polyreactivity

Sequence: QVQLVESGGGLVQAGGSLRLSCGASGRFFDDYAVGWYRQAPGKEREFVAAISRSGASTYYADSVKGRFTISRDNAKNTVYLQMNSLKPEDTAVYYCAARAGANYRMDYWGQGTQVTVSS
- polyreactivity (PSR sort gate): high polyreactivity

Sequence: QVQLVESGGGLVQAGGSLRLSCAASGRIFYLYAMGWYRQAPGKERELVAAITWSGGSTTYADSVKGRFTISRDNAKNTFYLQMNSLKPEDTAVYYCNADGWSFPSFSPMDYWGQGTQVTVSS
- polyreactivity (PSR sort gate): low polyreactivity

Sequence: QVQLVESGGGLDQAGGSLRLSCAASGSIFDRYAKGWYRQAPGTERELVASITWRATSTYYADSVKGRFTISRDNAKNTVYLKMNRLKPEETAVYYCAAAIAFGYRGTVAKYGYWGQGTQVTVSS
- polyreactivity (PSR sort gate): low polyreactivity

Sequence: QVQLVESGGGLVQAGGSLRLSCAASGIIFSRYAMGWYRQAPGKERELDAAISSRGTSTYYADSVKGRFTISRDNAKNTVYLQMNSLKPEDTAVYYCNAVSRPVRHKSTYDYWGQVTQVTVSS
- polyreactivity (PSR sort gate): high polyreactivity

Sequence: QVQLVESGGGLVHAGGSLRLSCAASGITFVRYMGWYRQAPGKERELVAAISASGGSTYYADSVKGRFTISRDNAKNTVYLQLNCLKPEDTAVYYCRFLRVGSLTMDYWGQGSQVTVSS
- polyreactivity (PSR sort gate): high polyreactivity

Sequence: QVQLVESGGGLVQAGGSLRLSCAASGFIIYSYAMGWYRQAPGKERELVAVISSRGGTTYYADSVKGRFTISRDNAKNTVYLQMNSLKPEDTAVYSCNVDRLGQRSDYWGQGTQVTVSS
- polyreactivity (PSR sort gate): low polyreactivity

Sequence: QVQLVESGGGLVQAGGSLRLSCAASGFTFSFYTMGWYRQAPGKERELVAAISRRGGSTYYADSVKGRFTISRDNAKNTVYLQMNSLKPEDTAVYYCATDHIPSVGVDYWGQGTQVTVSS
- polyreactivity (PSR sort gate): high polyreactivity

Sequence: QVHLVESGGGLVQAGGSLRLSCAASGITFAWYAMGWYRQAPGKERELVAAISDRGGSTYYADSVKGRFTMSRDNAKNTVDLQMNSLKPEETAVYYCAADYRYYWRSGASSRMDYWGQGTQVTVSS
- polyreactivity (PSR sort gate): high polyreactivity

Sequence: QVQRVESGGGLVQAGGRLRLSCAASGFTFFHYAMGRYRQAPGKERELVAAISWSGGTTYYADSVKGRFTISRDNAKNTVYLQMNCLKPEDTAVYYFAADGGLGWRWLPLGYRYGFDYWGQGTQVTVSS
- polyreactivity (PSR sort gate): low polyreactivity

Sequence: QVQLVESGGGLVQAGGSLRLSCAASGITFLDNAMGWYRQAPGKERELVAAITSDGNTYYADSVKGRFTISRDNAKNTVYLQMNSLKPEDTAVYYCAARGFLKYVTEFDYWGQGTQVTVSS
- polyreactivity (PSR sort gate): low polyreactivity

Sequence: QVQLVESGGGLVQAGGTLRLSCAASGRIFGYNAMGWYRQAPGKERELVAVISTSGTIRYYADSVKGRFTISRVNAKNTVYLQMKSLKPEDTAVYYCAARYYQRANGFGYWGQGTQVTVSS
- polyreactivity (PSR sort gate): low polyreactivity

Sequence: QVQLVESGGGLVQAGGSLRLSCAASGRTLDWNAMGWYRPAPGKERELVAAISWSGDSTYYADSVKGRFTISRDNAKNTVYLQMNSLKPEDTAVYYCAAAGVYYGVRGTTYAFDYWGQGTQVTVSS
- polyreactivity (PSR sort gate): low polyreactivity

Sequence: QVQLVESGGGLVQAGGSLRLSCAASGRIFAWNDMGWYRQAPGKERELVAAITSGGSTYYADSVKGRFTISRDNAKNTVYLQMNSLKPEDTAVYYCAADRVRRNDKLAYDYWGQGTQVTVSS
- polyreactivity (PSR sort gate): low polyreactivity

Sequence: QVQLVESGGGLVQAGGSLRLSCAASGSIFRVYALGWSRQAPGKERELVAAISSSGGSTYYADSVKGRFTISRDNAKNTVYLQMNSLKPEDTAVYYCAAEYDGPYTWVDYYYHYGYWGQGTQVTVSS
- polyreactivity (PSR sort gate): low polyreactivity

Sequence: QVQLVESGGGLVQAAGSLRLICAASGRIFDVYAMGWYRPAPGKERELVAAITWSGTSTYYADSVKGRFTISRDNAKNTVYLQMNSLKPEDTAVYYCAAEVAYTDTEYFWYYYWGQGTQVTVSS
- polyreactivity (PSR sort gate): high polyreactivity

Sequence: QVQLVESGGGLVQARGSLRLSCAASGRIFWSNAMGWYRQAPGKERELVAAISYSGDSTYYADSVKGRFTISRDNAKNTVYIQMKSLKPEDTAVYYCTAVGHRSYRYDYWGQGTQVTVSS
- polyreactivity (PSR sort gate): high polyreactivity

Sequence: QVQLVESGGGLVQAGGSLRLSCAASGSTFRSYTMGWYRHAPGKEMELVARISRSGGSTYYADSVKGRFTISRDNAKNTVYLQMNSLKPEDTAVYYCAALYYVKPGQRYDYWGQGTQVTVSS
- polyreactivity (PSR sort gate): high polyreactivity

Sequence: QVQLVESGGGLVRAGGSLRISCAASGSIFDVNDMGWYRQAPGKERELVASISWNGGSPYYADSVKRRFTISRDNAKNTVYLQLNILNPEDTAVYYCNRSYRRPTSDLYDYWGQGTQVTVSS
- polyreactivity (PSR sort gate): low polyreactivity

Sequence: QVQLVESGGGLVQAGGSLRLSCAASGNTFYHYAMGWYRQAPGKERELVAAITWTGDSTYYADSVKGRFTISRDNAKNTVYLQMNSLKPEDTAVYYCNRVGYQSMNYWGQGTQVTVSS
- polyreactivity (PSR sort gate): low polyreactivity

Sequence: QVQLVESGGGLVQAGGSLRLSCAASGFTFISYAMGWYRQAPGKERELVADISSSGDSTSYADSVKGRFTISRDNAKNTVYLQMNSLKPEDTAVYYCAAGDGYVYGEYDYWGQGTQVTVSS
- polyreactivity (PSR sort gate): low polyreactivity

Sequence: QVQLVESGGGLVQAVGSLRLSCAASGNIFHRNAMGWYRQAPGKEMELVAAISWSGGSTYYADSVKGRFTISRDNAKNTVYLQMNSLKPEDTAVYFCNAYYYYRFKPSHPGLRSYYWGQGTQVTVSS
- polyreactivity (PSR sort gate): high polyreactivity

Sequence: QVQVVESGGGLVQAGGSLRLSCAASGFTFAVYAMGWYRQAPGKERELVAAISRSGTRTYYADSVKGRFTISRDNAKNTVYVQMNSLKPEDTAVYYCAADKYRHGYDYWGQGTQVTVSS
- polyreactivity (PSR sort gate): low polyreactivity

Sequence: QVQLVESGGGLVQAGGSLRLSCAASGRTFDYNTMGWYRQAPGKERELVAAISASGGSTYYADSVKGRFTISRDNAKNTVYLQMNSLKPEDTAVYYCAAARAAIVPGYYSWGQGTQVTVSS
- polyreactivity (PSR sort gate): low polyreactivity

Sequence: QVQLQESVGGLVQAGGSLRLSCAASGNIFPTDRMGWYRQAPGKELEFVATISHGGSTNYADSVKGRFTISRDNAKNTVYLQMNSLKPEDTAVYYCAVWSLGRWRHYYWGQGTQVTVRS
- polyreactivity (PSR sort gate): low polyreactivity

Sequence: QVQLVESGGGLVQAGGSLRLSCAASGRTFEQYAMGWYRQAPGKERELVAAISKRGGSTYYADSVKGRFTISRDNAKNTVYLQMNSLKPEDTAVYYGATEKASNYFYRFDYWGQGTQVTVSS
- polyreactivity (PSR sort gate): low polyreactivity

Sequence: QVQLVESGGGLVQAGGSLRLSCAASGRIFYSNTMGWYRQAPGKERELVAAISRSGGRTYYADSVKGRFTISRDNAKNTVSLQLNSLKPEDTAVYYCNTAYCRNPYYKGYYWGQGTQVTVSS
- polyreactivity (PSR sort gate): high polyreactivity
